Laboratory results published in paper PMC2817712.

T1: CheA3P1, the isolated P1 (Hpt, histidine-containing phosphotransfer) domain of CheA3 (residues 1-135), unphosphorylated
T1 chain: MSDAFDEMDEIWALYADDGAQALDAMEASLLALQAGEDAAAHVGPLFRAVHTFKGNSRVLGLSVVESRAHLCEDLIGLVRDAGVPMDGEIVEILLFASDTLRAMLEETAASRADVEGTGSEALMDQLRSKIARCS


Target: T1, CheA3P1, the isolated P1 (Hpt, …)
Assay: SPR
Conditions: chain shown with the change; CheA3P1 injected over surfaces coupled with the respective RR; CheA3P1 concentration ranging from 120 nM to 2 mM; parent: ND

Kd [µM] | Binder
365 | CheY4 (wild type) with an engineered C-terminal biotinylation tag, for SPR surfaces P12A; S13M; C16L; M17Y (protein) MTKTVLAVDDSAMIRLYVALTLREAGYEVIEASDGQEALDLALSRPVDAILTDQNMPRLDGLGFIRAFRSRPEGKGTPIVFLSTESADTLKAEARAAGALGWMVKPFTQAQLLAVMKKLLG
678 | CheY4 (wild type) with an engineered C-terminal biotinylation tag, for SPR surfaces P12A; S13M (protein) MTKTVLAVDDSAMIRCMVALTLREAGYEVIEASDGQEALDLALSRPVDAILTDQNMPRLDGLGFIRAFRSRPEGKGTPIVFLSTESADTLKAEARAAGALGWMVKPFTQAQLLAVMKKLLG
